Paper PMC3359404

Key:
Assay in all cases: purified protein
Details in all cases: 10 mM pyruvate, 0.3 mM NADPH, 150 mM PIPES pH 6.6, room temperature
CSCC[C@H](N)C(=O)O = system: CSCC[C@H](N)C(=O)O
C[S+](C)CC[C@H](N)C(=O)O = system: C[S+](C)CC[C@H](N)C(=O)O
N=C(N)NOCC[C@H](N)C(=O)O = system: N=C(N)NOCC[C@H](N)C(=O)O
NC(=O)CC[C@H](N)C(=O)O = system: NC(=O)CC[C@H](N)C(=O)O
NCC(=O)O = system: NCC(=O)O
N[C@@H](CCO)C(=O)O = system: N[C@@H](CCO)C(=O)O
N[C@@H](CCS)C(=O)O = system: N[C@@H](CCS)C(=O)O
N[C@@H](CS)C(=O)O = system: N[C@@H](CS)C(=O)O
[1] = system: N[C@@H](Cc1c[nH]cn1)C(=O)O

Ocs (His6-Ocs), octopine synthase (Agrobacterium tumefaciens (strain 15955))
Km (CSCC[C@H](N)C(=O)O): 27 ± 6 mM
kcat (CSCC[C@H](N)C(=O)O): 78.3 s⁻¹
kcat/Km (CSCC[C@H](N)C(=O)O): 2830 M⁻¹ s⁻¹
Km (C[S+](C)CC[C@H](N)C(=O)O): 0.31 ± 0.04 mM
kcat (C[S+](C)CC[C@H](N)C(=O)O): 0.817 s⁻¹
kcat/Km (C[S+](C)CC[C@H](N)C(=O)O): 2670 M⁻¹ s⁻¹
Km (N=C(N)NOCC[C@H](N)C(=O)O): 2.8 ± 0.5 mM
kcat (N=C(N)NOCC[C@H](N)C(=O)O): 16.7 s⁻¹
kcat/Km (N=C(N)NOCC[C@H](N)C(=O)O): 6000 M⁻¹ s⁻¹
Km (NC(=O)CC[C@H](N)C(=O)O): 5.6 ± 0.6 mM
kcat (NC(=O)CC[C@H](N)C(=O)O): 13 s⁻¹
kcat/Km (NC(=O)CC[C@H](N)C(=O)O): 2330 M⁻¹ s⁻¹
Km (NCC(=O)O): 30 ± 6 mM
kcat/Km (NCC(=O)O): 717 M⁻¹ s⁻¹
Km (N[C@@H](CCO)C(=O)O): 15 ± 3 mM
kcat (N[C@@H](CCO)C(=O)O): 30 s⁻¹
kcat/Km (N[C@@H](CCO)C(=O)O): 2000 M⁻¹ s⁻¹
Km (N[C@@H](CCS)C(=O)O): 8.9 ± 1.1 mM
kcat (N[C@@H](CCS)C(=O)O): 26.7 s⁻¹
kcat/Km (N[C@@H](CCS)C(=O)O): 3000 M⁻¹ s⁻¹
Km (N[C@@H](CS)C(=O)O): 11 ± 3 mM
kcat (N[C@@H](CS)C(=O)O): 11.2 s⁻¹
kcat/Km (N[C@@H](CS)C(=O)O): 1020 M⁻¹ s⁻¹
Km [1]: 2.0 ± 0.21 mM
kcat [1]: 20 s⁻¹
kcat/Km [1]: 10000 M⁻¹ s⁻¹
